According to patent US20190040130A1 (Alector, published 2019):

T1: human TREM2 expressed on cells (human, UniProt Q9NZC2 19-230)
T1 construct: also called huT2 BW; cell expressed TREM2
T1 sequence: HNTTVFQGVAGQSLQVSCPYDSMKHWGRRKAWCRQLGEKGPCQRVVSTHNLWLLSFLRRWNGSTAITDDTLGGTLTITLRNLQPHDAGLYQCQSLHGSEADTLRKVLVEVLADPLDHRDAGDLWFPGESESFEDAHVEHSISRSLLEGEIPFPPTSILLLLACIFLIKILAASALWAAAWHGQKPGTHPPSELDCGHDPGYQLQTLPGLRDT


Target: T1, human TREM2 expressed on cells
Assay: FACS, BW cells
Procedure: To examine cell binding of anti-TREM2 antibodies, recombinant, human TREM2-expressing BW5147. G.1.4 cells (ATCC® TIB48™) were established by stably expressing either mouse TREM2 or human TREM2 together with Dap12 using viral infection. Cells were harvested by scraping, washed in PBS, counted and plated on 96-well U bottom plates at 1×10⁵ cells/well. The plates were spun at 1,400 rpm for 3 minutes and primary anti-TREM2 or control antibodies were added in FACS buffer (PBS+2% FBS) and incubated on ice for one hour. Cells were subsequently centrifuged as before and washed thrice with FACS buffer. Cells were then incubated with anti-human PE conjugated secondary antibody (BD Biosciences) in FACS buffer for 30 minutes on ice. Cells were again washed thrice with FACS buffer and analyzed on a BD FACS Canto. Binding was measured as mean fluorescence intensity in the […].

Row | Binder | Cell binding (FOB) [fold over background]
1 | AL2p-h77 (antibody, IgG1, V domains shown, IgG1; Fab in monovalent BLI) VH: QVQLVQSGAEVKKPGASVKVSCKASGYAFSSSWMNWVRQAPGQRLEWIGRIYPGDGDTNYAQKFQGRVTITADTSASTAYMELSSLRSEDTAVYYCARLLRNQPGESYAMDYWGQGTLVTVSS VL: DVVMTQSPDSLAVSLGERATINCRSSQSLVHSNGYTYLHWYQQKPGQSPKLLIYKVSNRFSGVPDRFSGSGSGTDFTLTISSLQAEDVAVYYCSQSTRVPYTFGGGTKVEIK | 83
2 | AL2p-h50 (antibody, IgG1, V domains shown, IgG1; Fab in monovalent BLI) VH: QVQLVQSGAEVKKPGSSVKVSCKASGYAFSSSWMNWVRQAPGQGLEWMGRIYPGDGDTNYAQKFQGRVTITADESTSTAYMELSSLRSEDTAVYYCARLLRNQPGESYAMDYWGQGTLVTVSS VL: DVVMTQTPLSLSVTPGQPASISCRSSQSLVHSNGYTYLHWYLQKPGQSPQLLIYKVSNRFSGVPDRFSGSGSGTDFTLKISRVEAEDVGVYYCSQSTRVPYTFGQGTKLEIK | 78
3 | AL2p-h27 (antibody, IgG1, V domains shown, IgG1; Fab in monovalent BLI) VH: QVQLVQSGAEVKKPGASVKVSCKASGYAFSSSWMNWVRQAPGQGLEWIGRIYPGDGDTNYNGEFRVRATLTADTSTSTAYMELSSLRSEDTAVYFCARLLRNQPGESYAMDYWGQGTLVTVSS VL: DVVMTQTPLSLSVTPGQPASISCRSSQSLVHSNGYTYLHWYLQKPGQSPQLLIYKVSNRFSGVPDRFSGSGSGTDFTLKISRVEAEDLGVYFCSQSTRVPYTFGQGTKLEIK | 78
4 | AL2p-h24 (antibody, IgG1, V domains shown, IgG1; Fab in monovalent BLI) VH: QVQLVQSGAEVVKPGASLKISCKASGYAFSSSWMNWVRQAPGQGLEWIGRIYPGDGDTNYNQKFQGRATLTADTSTSTAYMELSSLRSEDTAVYFCARLLRNQPGESYAMDYWGQGALVTVSS VL: DVVMTQTPLSLSVTPGQPASISCRSSQSLVHSNGYTYLHWYLQKPGQSPQLLIYKVSNRFSGVPDRFSGSGSGTDFTLKISRVEAEDLGVYFCSQSTRVPYTFGQGTKLEIK | 69
5 | AL2p-h35 (antibody, IgG1, V domains shown, IgG1; Fab in monovalent BLI) VH: QVQLVQSGAEVKKPGSSVKVSCKASGYAFSSSWMNWVRQAPGQGLEWMGRIYPGDGDTNYAQKFQGRATITADTSTSTAYMELSSLRSEDTAVYYCARLLRNQPGESYAMDYWGQGTLVTVSS VL: DVVMTQTPLSLSVTPGQPASISCRSSQSLVHSNGYTYLHWYLQKPGQSPQLLIYKVSNRFSGVPDRFSGSGSGTDFTLKISRVEAEDLGVYFCSQSTRVPYTFGQGTKLEIK | 69
6 | AL2p-h23 (antibody, IgG1, V domains shown, IgG1; Fab in monovalent BLI) VH: QVQLVQSGAEVKKPGASLKISCKASGYAFSSSWMNWVRQAPGQGLEWIGRIYPGDGDTNYAQKFQGRATLTADTSTSTAYMELSSLRSEDTAVYYCARLLRNQPGESYAMDYWGQGALVTVSS VL: DVVMTQTPLSLSVTPGQPASISCRSSQSLVHSNGYTYLHWYLQKPGQSPQLLIYKVSNRFSGVPDRFSGSGSGTDFTLKISRVEAEDLGVYFCSQSTRVPYTFGQGTKLEIK | 76
7 | AL2p-h44 (antibody, IgG1, V domains shown, IgG1; Fab in monovalent BLI) VH: QVQLVQSGAEVKKPGASLKVSCKASGYAFSSSWMNWVRQAPGQRLEWIGRIYPGDGDTNYAQKFQGRATLTADTSASTAYMELSSLRSEDTAVYFCARLLRNQPGESYAMDYWGQGTLVTVSS VL: DVVMTQTPLSLSVTPGQPASISCRSSQSLVHSNGYTYLHWYLQKPGQSPQLLIYKVSNRFSGVPDRFSGSGSGTDFTLKISRVEAEDVGVYYCSQSTRVPYTFGQGTKLEIK | 80
8 | AL2p-h19 (antibody, IgG1, V domains shown, IgG1; Fab in monovalent BLI) VH: QVQLVQSGAEVKKPGSSVKVSCKASGYAFSSSWMNWVRQAPGQGLEWMGRIYPGDGDTNYAQKFQGRATITADTSTSTAYMELSSLRSEDTAVYYCARLLRNQPGESYAMDYWGQGTLVTVSS VL: DIVMTQTPLSLSVTPGQPASISCRSSQSLVHSNGYTYLHWYLQKPGQSPQLLIYKVSNRFSGVPDRFSGSGSGTDFTLKISRVEAEDVGVYYCSQSTRVPYTFGQGTKLEIK | 87
9 | AL2p-h21 (antibody, IgG1, V domains shown, IgG1; Fab in monovalent BLI) VH: QVQLVQSGAEVKKPGASVKVSCKASGYAFSSSWMNWVRQAPGQGLEWMGRIYPGDGDTNYAQKFQGRVTMTRDTSTSTVYMELSSLRSEDTAVYYCARLLRNQPGESYAMDYWGQGTLVTVSS VL: DVVMTQTPLSLSVTPGQPASISCRSSQSLVHSNGYTYLHWYLQKPGQSPQLLIYKVSNRFSGVPDRFSGSGSGTDFTLKISRVEAEDLGVYFCSQSTRVPYTFGQGTKLEIK | 76
10 | AL2p-h22 (antibody, IgG1, V domains shown, IgG1; Fab in monovalent BLI) VH: QVQLVQSGAEVKKPGASVKVSCKASGYAFSSSWMNWVRQAPGQGLEWIGRIYPGDGDTNYAQKFQGRVTMTADTSTSTVYMELSSLRSEDTAVYYCARLLRNQPGESYAMDYWGQGTLVTVSS VL: DVVMTQTPLSLSVTPGQPASISCRSSQSLVHSNGYTYLHWYLQKPGQSPQLLIYKVSNRFSGVPDRFSGSGSGTDFTLKISRVEAEDLGVYFCSQSTRVPYTFGQGTKLEIK | 61
11 | AL2p-h47 (antibody, IgG1, V domains shown, IgG1; Fab in monovalent BLI) VH: QVQLVQSGAEVKKPGASVKVSCKASGYAFSSSWMNWVRQAPGQGLEWMGRIYPGDGDTNYNGEFRVRVTMTRDTSTSTVYMELSSLRSEDTAVYYCARLLRNQPGESYAMDYWGQGTLVTVSS VL: DVVMTQTPLSLSVTPGQPASISCRSSQSLVHSNGYTYLHWYLQKPGQSPQLLIYKVSNRFSGVPDRFSGSGSGTDFTLKISRVEAEDVGVYYCSQSTRVPYTFGQGTKLEIK | 93
12 | AL2p-h26 (antibody, IgG1, V domains shown, IgG1; Fab in monovalent BLI) VH: QVQLVQSGAEVKKPGASVKVSCKASGYAFSSSWMNWVRQAPGQRLEWIGRIYPGDGDTNYAQKFQGRVTITADTSASTAYMELSSLRSEDTAVYYCARLLRNQPGESYAMDYWGQGTLVTVSS VL: DVVMTQTPLSLSVTPGQPASISCRSSQSLVHSNGYTYLHWYLQKPGQSPQLLIYKVSNRFSGVPDRFSGSGSGTDFTLKISRVEAEDLGVYFCSQSTRVPYTFGQGTKLEIK | 78
13 | AL2p-h33 (antibody, IgG1, V domains shown, IgG1; Fab in monovalent BLI) VH: QVQLVQSGAEVKKPGSSVKVSCKASGYAFSSSWMNWVRQAPGQGLEWIGRIYPGDGDTNYAQKFQGRATLTADTSTTTAYMELSSLRSEDTAVYFCARLLRNQPGESYAMDYWGQGTLVTVSS VL: DVVMTQTPLSLSVTPGQPASISCRSSQSLVHSNGYTYLHWYLQKPGQSPQLLIYKVSNRFSGVPDRFSGSGSGTDFTLKISRVEAEDLGVYFCSQSTRVPYTFGQGTKLEIK | 74
14 | AL2p-h30 (antibody, IgG1, V domains shown, IgG1; Fab in monovalent BLI) VH: QVQLVQSGAEVKKPGASVKVSCKASGYAFSSSWMNWVRQAPGQGLEWMGRIYPGDGDTNYAQKFQGRVTMTADTSTSTAYMELSSLRSEDTAVYYCARLLRNQPGESYAMDYWGQGTLVTVSS VL: DVVMTQTPLSLSVTPGQPASISCRSSQSLVHSNGYTYLHWYLQKPGQSPQLLIYKVSNRFSGVPDRFSGSGSGTDFTLKISRVEAEDLGVYFCSQSTRVPYTFGQGTKLEIK | 88
15 | AL2p-h42 (antibody, IgG1, V domains shown, IgG1; Fab in monovalent BLI) VH: QVQLVQSGAEVKKPGASVKVSCKASGYAFSSSWMNWVRQAPGQRLEWMGRIYPGDGDTNYAQKFQGRVTITRDTSASTAYMELSSLRSEDTAVYYCARLLRNQPGESYAMDYWGQGTLVTVSS VL: DVVMTQTPLSLSVTPGQPASISCRSSQSLVHSNGYTYLHWYLQKPGQSPQLLIYKVSNRFSGVPDRFSGSGSGTDFTLKISRVEAEDVGVYYCSQSTRVPYTFGQGTKLEIK | 79
16 | AL2p-h34 (antibody, IgG1, V domains shown, IgG1; Fab in monovalent BLI) VH: QVQLVQSGAEVKKPGSSVKVSCKASGYAFSSSWMNWVRQAPGQGLEWIGRIYPGDGDTNYAQKFQGRATITADTSTSTAYMELSSLRSEDTAVYFCARLLRNQPGESYAMDYWGQGTLVTVSS VL: DVVMTQTPLSLSVTPGQPASISCRSSQSLVHSNGYTYLHWYLQKPGQSPQLLIYKVSNRFSGVPDRFSGSGSGTDFTLKISRVEAEDLGVYFCSQSTRVPYTFGQGTKLEIK | 84
17 | AL2p-h59 (antibody, IgG1, V domains shown, IgG1; Fab in monovalent BLI) VH: QVQLVQSGAEVKKPGASVKVSCKASGYAFSSSWMNWVRQAPGQRLEWMGRIYPGDGDTNYAQKFQGRVTITRDTSASTAYMELSSLRSEDTAVYYCARLLRNQPGESYAMDYWGQGTLVTVSS VL: DIVMTQSPLSLPVTPGEPASISCRSSQSLVHSNGYTYLHWYLQKPGQSPQLLIYKVSNRFSGVPDRFSGSGSGTDFTLKISRVEAEDVGVYYCSQSTRVPYTFGGGTKVEIK | 69
18 | AL2p-h25 (antibody, IgG1, V domains shown, IgG1; Fab in monovalent BLI) VH: QVQLVQSGAEVKKPGASLKISCKASGYAFSSSWMNWVRQAPGQGLEWIGRIYPGDGDTNYNGEFRVRATLTADTSTSTAYMELSSLRSEDTAVYYCARLLRNQPGESYAMDYWGQGALVTVSS VL: DVVMTQTPLSLSVTPGQPASISCRSSQSLVHSNGYTYLHWYLQKPGQSPQLLIYKVSNRFSGVPDRFSGSGSGTDFTLKISRVEAEDLGVYFCSQSTRVPYTFGQGTKLEIK | 90
19 | AL2p-h32 (antibody, IgG1, V domains shown, IgG1; Fab in monovalent BLI) VH: QVQLVQSGAEVKKPGSSVKVSCKASGYAFSSSWMNWVRQAPGQGLEWIGRIYPGDGDTNYNGEFRVRATLTADTSTTTAYMELSSLRSEDTAVYFCARLLRNQPGESYAMDYWGQGTLVTVSS VL: DVVMTQTPLSLSVTPGQPASISCRSSQSLVHSNGYTYLHWYLQKPGQSPQLLIYKVSNRFSGVPDRFSGSGSGTDFTLKISRVEAEDLGVYFCSQSTRVPYTFGQGTKLEIK | 81
